Laboratory results as given in patent publication US6319890A, “Inhibition of binding of complement Factor H” (priority 1996, dated 2001).

How the values were obtained:
[1] = target: T1, binding of peptide A to HIV-derived target peptides #SA2, #12, #18 (Human immunodeficiency virus type 1 group M subtype B, UniProt P03377); test: Competition of the binding of biotin-labelled peptide A to HIV-derived peptides
T1 construct: His Glu Asp Ile Ile Ser Leu Trp Asp Gln Ser Leu Lys Pro Cys, Env; 105-119; Ile Asn Asn Thr Tyr THr Ser, Env; 621-645; Leu Asp Lys Trp Ala Ser, Env; 650-673; made in house; host or cells: chemical synthesis (synthetic peptides)
Excerpt: This interaction was competed by peptide A itself, by the envelope peptides #SA2 Sequence I.D. #20, #12 Sequence I.D. #22 and #18 Sequence I.D. #21 but not by peptide #53 Sequence I.D. […]. Therefore, the three HIV-derived peptides seem to share functional homology with respect to the interaction with CFH since they all bind to the same region on SEQ. ID NO: 1.

[2] = target: CFH (Homo sapiens, UniProt P08603); settings: described in earlier publications of Pinter et al.; cited from earlier work
[3] = target: T2, binding of CFH to the HIV envelope peptides #SA2 (gp120), #18 and #12 (gp41) (Human immunodeficiency virus type 1 group M subtype B, UniProt P03377); settings: competitor added simultaneously with CFH; ELISA, solid-phase peptides #SA2, #18, #12
T2 construct: His Glu Asp Ile Ile Ser Leu Trp Asp Gln Ser Leu Lys Pro Cys, Env; 105-119; Ile Asn Asn Thr Tyr THr Ser, Env; 621-645; Leu Asp Lys Trp Ala Ser, Env; 650-673; made in house; host or cells: Env peptides: chemical synthesis; CFH: purified from normal human plasma (or fresh plasma used as the CFH source)

[4] = target: T2, binding of CFH to the HIV envelope peptides #SA2 (gp120), #18 and #12 (gp41); settings: target peptides preincubated with competitor, washed, before CFH
Description: Synthetic peptides and recombinant proteins were dissolved in Carbonate-bicarbonate buffer, 50 mM, pH 9.2 at 50 μg/ml (micrograms per milliliter) and 10 μg/ml, respectively, distributed in 100 μl aliquots into flat-bottomed 96-well ELISA plates (Greiner, Germany) and left at 37° C. for 3 hours. The plates were then washed three times in phosphate-buffered saline (PBS) and the wells were overcoated with a 3% (w/v) solution of bovine serum albumin (BSA) in PBS. The CFH source (either from fresh plasma or from plasma subjected to subsequent purification steps), was diluted to the appropriate concentration (1 mg/ml) in PBS-BT (=PBS containing 1% BSA and 1% Tween 20), pH 7.0 and exposed to the solid phase for one hour at 37° C. After washing in PBS+1% Tween 20 (=PBS-T), bound CFH was detected by the use of specific, biotin-labelled MAb 5H5, Pinter et al., AIDS Research & Human Retroviruses 11: 971, and peroxidase-labelled streptavidin (Sigma, Italy). The reaction was developed with o-phenylene-diamine/H2 O2 for fifteen minutes and then stopped by the addition of 4N H2 SO4. Absorbance was detected at […] with a MT450 microplate reader (BioRad).
Along with the above-described assay, a preincubation assay was also conducted with peptides. […] The solid phases were washed in PBS-T and CFH was detected with the biotin-labelled MAb 5H5 as previously described.

[5] = target: T2, binding of CFH to the HIV envelope peptides #SA2 (gp120), #18 and #12 (gp41); settings: previous work, Pinter et al., AIDS Research & Human Retroviruses 11:577; cited from earlier work
[6] = target: T3, gp120-derived peptide #SA2 (Env. 105-119) (Human Immunodeficiency Virus); test: competition ELISA against CFH; inhibition due to interaction of peptide A with the solid phase (preincubation gave the same effect)
T3 peptide: HEDIISLWDQSLKPC

[7] = target: T4, gp41-derived peptide #18 (Env. 621-645) (Human Immunodeficiency Virus); test: as above
T4 peptide: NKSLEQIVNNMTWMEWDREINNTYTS

[8] = target: T5, gp41-derived peptide #12 (Env. 650-673) (Human Immunodeficiency Virus); test: as above
T5 peptide: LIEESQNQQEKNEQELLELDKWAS

[9] = target: T3, gp120-derived peptide #SA2 (Env. …); test: competition ELISA against CFH binding to the immobilised envelope peptide
[10] = target: T4, gp41-derived peptide #18 (Env. 621-645); test: as above
[11] = target: T5, gp41-derived peptide #12 (Env. 650-673); test: as above

T2 sequence (P03377 621-645, other chains not shown): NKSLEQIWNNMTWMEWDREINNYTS
Chain of CFH (P08603 19-1231): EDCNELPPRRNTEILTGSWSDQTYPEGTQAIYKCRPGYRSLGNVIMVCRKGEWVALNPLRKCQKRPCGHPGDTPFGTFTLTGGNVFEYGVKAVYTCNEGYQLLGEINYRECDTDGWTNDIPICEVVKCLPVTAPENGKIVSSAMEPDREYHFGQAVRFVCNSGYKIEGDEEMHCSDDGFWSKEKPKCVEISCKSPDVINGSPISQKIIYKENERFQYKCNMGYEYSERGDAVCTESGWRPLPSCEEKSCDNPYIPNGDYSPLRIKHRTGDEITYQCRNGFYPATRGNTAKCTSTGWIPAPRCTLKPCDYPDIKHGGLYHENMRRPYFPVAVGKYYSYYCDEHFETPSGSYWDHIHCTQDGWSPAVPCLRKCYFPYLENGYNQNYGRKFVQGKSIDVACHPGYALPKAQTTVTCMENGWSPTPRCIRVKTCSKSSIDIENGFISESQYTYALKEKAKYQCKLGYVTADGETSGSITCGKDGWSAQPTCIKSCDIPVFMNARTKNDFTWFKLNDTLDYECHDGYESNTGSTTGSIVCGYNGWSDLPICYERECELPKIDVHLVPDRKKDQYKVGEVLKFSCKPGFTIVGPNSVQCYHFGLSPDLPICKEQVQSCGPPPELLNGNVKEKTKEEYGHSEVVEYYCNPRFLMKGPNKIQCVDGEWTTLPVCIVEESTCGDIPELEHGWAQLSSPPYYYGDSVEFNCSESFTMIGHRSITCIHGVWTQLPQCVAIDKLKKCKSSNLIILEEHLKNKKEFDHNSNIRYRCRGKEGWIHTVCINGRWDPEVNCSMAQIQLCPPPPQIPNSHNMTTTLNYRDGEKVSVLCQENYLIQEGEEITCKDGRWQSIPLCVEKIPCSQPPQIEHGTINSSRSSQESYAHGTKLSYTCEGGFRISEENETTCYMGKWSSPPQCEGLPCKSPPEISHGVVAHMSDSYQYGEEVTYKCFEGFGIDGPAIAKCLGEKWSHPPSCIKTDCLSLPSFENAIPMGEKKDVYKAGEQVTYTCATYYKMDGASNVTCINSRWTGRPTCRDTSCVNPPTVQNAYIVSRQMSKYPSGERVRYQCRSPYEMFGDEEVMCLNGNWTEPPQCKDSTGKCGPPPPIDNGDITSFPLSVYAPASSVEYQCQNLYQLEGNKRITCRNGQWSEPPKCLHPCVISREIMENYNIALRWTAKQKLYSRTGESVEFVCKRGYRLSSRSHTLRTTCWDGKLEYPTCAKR

In the case of “Asn Lys Ser Leu Glu Gln Ile Val Asn Asn Met Thr Trp Met Glu Trp Asp Arg Glu Ile Asn Asn Thr Tyr THr Ser (NKSLEQIVNNMTWMEWDREINNTYTS) [#18, gp41-derived HIV envelope peptide, Env; 621-645]”, the “competition of the binding of biotin-labelled peptide A to HIV-derived peptides” value [1] is given as “competed” and the “CFH binding to the HIV envelope peptide” value [2] is given as “targets of CFH binding”.

For Heparin, the “competition with the binding of CFH to the HIV envelope peptides” value [3] is given as “competed”, the “competition with the binding of CFH to the HIV envelope peptides after preincubation” value [4] is given as “inactive” and the “inhibition of the binding of CFH to HIV and to the target peptides” value [5] is given as “inhibited”.

AIDKLKKCKSSNLIILEEHLKNKKEFDHNS [Peptide A]: binds [6]; binds [7]; binds [8].

IRYRCRGKEGWIHTVCINGRWDPEVNCS [Peptide B]: no binding (tested: 0 to 50 µg/ml) [9]; no binding (tested: 0 to 50 µg/ml) [10]; no binding (tested: 0 to 50 µg/ml) [11].

KEFDHNSNIRYRCR [peptide b11]: binds [9]; binds [10]; binds [11].
